Experimental data taken from paper PMC12445682 (Nucleic Acids Research, 2025).
Positions count from the first letter of the chain named. Names and notes keep the numbering of the source.

B1: P2–OLD H332A (ATPase domain mutant), His-MBP-bdSUMO fusion (enzyme, phage P2, UniProt P13520 1-586, looked up)
chain: MTVRLASVSISNFRSCKSTSAILRPFTALVGYNNAGKSNIILAIKWLLDGSLISESDVYDPTHPVSVEGVIQGITDDTLSLLTEENQQKIAPFIIDGTLTFARRQEFNKETGKAKKSLDVYDGTTWKKNPGGIDGAISNIFPEPIHIPAMSDAVEDSTKCKNTTTIGKILSAIVSEIKQEHEEKFSKNISEIGKYLSHNGENRLESLNKIDSGVNKKVNQFFPDVSVKLHFPTPTLDEIFKSGTLKVFESREDEPVMRDISRFGHGTQRSIQMALIQYLAEIKKENSESKKSNTLIFIDEPELYLHPSAINSVRESLVTLSESGYQVIISTASASMLSAKHAANAIQVCKDSNGTIARKTISEKIEELYKSSSPQLHSAFTLSNSSYLLFSEEVLLVEGKTETNVLYALYKKINGHELNPSKICIVAVDGKGSLFKMSQIINAIGIKTRILADCDFLSNILLTEHKDLLSTECDNLLTALIESINSGELSLNTKVTTFESFKSISSKDFIKICNHEKTQKHIHEIHQKLKDNGIYIWKSGDIEAVYGFGKKQTEWDSLLDCLCDESKDVRAVIKKYDEMEDFIKWI
B2: P2–OLD H332A/E402A (ATPase and Toprim double mutant), His-MBP-bdSUMO fusion (enzyme, phage P2, UniProt P13520 1-586, looked up)
chain: B1 chain with E402A
B3: P2–OLD E402A (Toprim domain mutant), His-MBP-bdSUMO fusion (enzyme, phage P2, UniProt P13520 1-586, looked up)
chain: B1 chain with A332H, E402A

Biological target: the molecule itself
Assay: SEC

Row | Protein | binding result
1 | B1 | binds
2 | B2 | binds
3 | B3 | binds
